Measured values as given in US20120190039A1 (MOUNT SINAI HOSPITAL, published 2012).
Blank lines part the entries; values can stand above or below the molecule they belong to.

Columns and labels:
[1] = target: B-RAF_L487R/E558K (human B-RAF kinase domain, residues 448-723) (human) (UniProt P15056); assay: analytical ultracentrifugation, equilibrium sedimentation, self-association
[2] = target: B-RAF_L487R (human B-RAF kinase domain, residues 448-723) (human) (UniProt P15056); assay: as above
[3] = target: B-RAF_R481H (human B-RAF kinase domain, residues 448-723) (human) (UniProt P15056); assay: as above
[4] = target: MEK (overexpressed in S2 cells) (UniProt Q24324 1-396); assay: co-immunoprecipitation from S2 cells
Procedure: S2 cells were maintained in serum-free insect cell medium (Sigma) at 27° C. Cells were seeded at a density of 1.75×10⁶ cells/ml 24 h prior to transfection. Between 10 to 300 ng (or up to 900 ng for KSR_R732H) of DNA was transfected per construct using Effectene (Qiagen). dsRNAs were produced and used in RNAi experiments as described (Roy, F., Laberge, G., Douziech, M., Ferland-McCollough, D. & Therrien, M. KSR is a scaffold required for activation of the ERK/MAPK module. Genes Dev 16, 427-38 (2002)). Protein expression was induced by adding CuSO₄ (0.7 mM) 36 h before harvesting the cells. For FRB/FKBP-mediated dimer formation, rapamycin (Sigma) was added ([…]) to the medium 2 h prior to harvesting the cells. Lysates, immunoprecipitations, western blot procedures and antibodies were essentially as previously described (Douziech, M., Sahmi, M., Laberge, G. & Therrien, M. A, KSR/CNK complex mediated by HYP, a novel SAM domain-containing protein, regulates RAS-dependent RAF activation in Drosophila, Genes Dev, 20, 807-19 (2006)).

Sequence of MEK (overexpressed in S2 cells) (Q24324 whole entry): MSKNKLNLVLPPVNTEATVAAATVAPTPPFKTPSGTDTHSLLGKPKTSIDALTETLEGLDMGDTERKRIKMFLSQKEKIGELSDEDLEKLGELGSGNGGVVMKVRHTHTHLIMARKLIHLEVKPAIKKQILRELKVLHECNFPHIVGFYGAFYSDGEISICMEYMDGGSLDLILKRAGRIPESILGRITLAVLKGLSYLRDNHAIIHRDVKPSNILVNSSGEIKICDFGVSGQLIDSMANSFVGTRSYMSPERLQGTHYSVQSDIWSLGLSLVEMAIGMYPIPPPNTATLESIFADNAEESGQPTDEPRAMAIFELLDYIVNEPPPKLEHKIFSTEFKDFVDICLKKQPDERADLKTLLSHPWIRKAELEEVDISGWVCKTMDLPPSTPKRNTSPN

- average molecular weight (global self association fit) [1]: 55500 Da
- ratio of the observed average MW to the theoretical MW of the monomer [1]: 1.8
Molecule: B-RAF_L487R/E558K (human B-RAF kinase domain, residues 448-723) (from UniProt P15056 448-723) (enzyme)

- average molecular weight (global self association fit) [2]: 48600 Da
- ratio of the observed average MW to the theoretical MW of the monomer [2]: 1.5
Molecule: B-RAF_L487R (human B-RAF kinase domain, residues 448-723) (from UniProt P15056 448-723) (enzyme)

- average molecular weight (global self association fit) [3]: 34500 Da
- ratio of the observed average MW to the theoretical MW of the monomer [3]: 1.1
Molecule: B-RAF_R481H (human B-RAF kinase domain, residues 448-723) (from UniProt P15056 448-723) (enzyme)

- binding result [4]: no binding
B1: KSR-RAF chimera-A (KSR 1-665 fused to RAF 417-739, K455M) (other)
chain: MSSNNNAPASAPDTGSTNANDPISGSLSVDSNLVIIQDMIDLSANHLEGLRTQCAISSTLTQQEIRCLESKLVRYFSELLLAKMRLNERIPANGLVPHTTGNELRQWLRVVGLSQGTLTACLARLTTLEQSLRLSDEEIRQLLADSPSQREEEELRRLTRAMQNLRKCMESLESGTAASNNDPEQWHWDSWDRPTHIHRGSVGNIGLGNNSTASPRTHHRQHGVKGKNSALANSTNFKSGRQSPSATEELNSTQGSQLTLTLTPSPPNSPFTPSSGLSSSLNGTPQRSRGTPPPARKHQTLLSQSHVQVDGEQLARNRLPTDPSPDSHSSTSSDIFVDPNTNASSGGSSSNVLMVPCSPGVGHVGMGHAIKHRFTKALGFMATCTLCQKQVFHRWMKCTDCKYICHKSCAPHVPPSCGLPREYVDEFRHIKEQGGYASLPHVHGAAKGSPLVKKSTLGKPLHQQHGDSSSPSSSCTSSTPSSPALFQQRERELDQAGSSSSANLLPTPSLGKHQPSQFNFPNVTVTSSGGSGGVSLISNEPVPEQFPTAPATANGGLDSLVSSSNGHMSSLIGSQTSNASTAATLTGSLVNSTTTTSTCSFFPRKLSTAGVDKRTPFTSEYTDTHKSNDSDKTVSLSGSASTDSDRTPVRVDSTEDGDSGQWRQNSSEENWNILAEEILIGPRIGSGSFGTVYRAHWHGPVAVMTLNVKTPSPAQLQAFKNEVAMLKKTRHCNILLFMGCVSKPSLAIVTQWCEGSSLYKHVHVSETKFKLNTLIDIGRQVAQGMDYLHAKNIIHRDLKSNNIFLHEDLSVKIGDFGLATAKTRWSGEKQANQPTGSILWMAPEVIRMQELNPYSFQSDVYAFGIVMYELLAECLPYGHISNKDQILFMVGRGLLRPDMSQVRSDAPQALKRLAEDCIKYTPKDRPLFRPLLNMLENMLRTLPKIHRSASEPNLTQSQLQNDEFLYLPSPKTPVNFNNFQFFGSAGNI
